Experiments:
[1] = substrate: CC(=O)SCCNC(=O)CCNC(=O)[C@H](O)C(C)(C)COP(=O)(O)OP(=O)(O)OC[C@H]1O[C@@H](n2cnc3c(N)ncnc32)[C@H](O)[C@@H]1OP(=O)(O)O; assay: Ellman (DTNB) colorimetric acetyltransferase assay, Michaelis-Menten fit; assay type: biochemical, Saccharomyces cerevisiae; details: fixed yArl3 peptide … 1340 µM, 30–500 µM acetyl-CoA, pH 7.5, 25 °C
Excerpt: Ellman (DTNB) colorimetric acetyltransferase assay, Michaelis-Menten fit on NatC WT (Naa30ΔC17, full-length Naa35, Naa38ΔC11)

[2] = molecular target: T1, NatC WT complex (Naa30ΔC17, full-length Naa35, Naa38ΔC11) (S. cerevisiae, UniProt Q03503 1-159; Q02197 1-733; P23059 1-77); assay: crystal structure; purified NatC with CoA (1:3) and substrate peptide … (1:5) or … (1:3) added to the crystallization setup; 14.5–16.5% PEG 4000, 150 mM ammonium iodide, 100 mM sodium citrate pH 6.1–6.3; details: both partners purified
T1 construct: Naa30, catalytic subunit of NatC, S. cerevisiae, residues 1–159; Naa38, small auxiliary subunit of NatC, S. cerevisiae, residues 1–77; also called heterotrimeric NatC complex; not shown: His6, N-terminal, cleaved; copies: + +
T1 sequence (looked up) 1: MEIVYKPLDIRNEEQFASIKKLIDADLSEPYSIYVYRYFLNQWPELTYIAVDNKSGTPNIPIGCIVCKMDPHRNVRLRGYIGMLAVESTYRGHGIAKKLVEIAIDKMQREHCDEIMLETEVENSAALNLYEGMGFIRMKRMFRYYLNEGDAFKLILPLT
T1 sequence (looked up) 2: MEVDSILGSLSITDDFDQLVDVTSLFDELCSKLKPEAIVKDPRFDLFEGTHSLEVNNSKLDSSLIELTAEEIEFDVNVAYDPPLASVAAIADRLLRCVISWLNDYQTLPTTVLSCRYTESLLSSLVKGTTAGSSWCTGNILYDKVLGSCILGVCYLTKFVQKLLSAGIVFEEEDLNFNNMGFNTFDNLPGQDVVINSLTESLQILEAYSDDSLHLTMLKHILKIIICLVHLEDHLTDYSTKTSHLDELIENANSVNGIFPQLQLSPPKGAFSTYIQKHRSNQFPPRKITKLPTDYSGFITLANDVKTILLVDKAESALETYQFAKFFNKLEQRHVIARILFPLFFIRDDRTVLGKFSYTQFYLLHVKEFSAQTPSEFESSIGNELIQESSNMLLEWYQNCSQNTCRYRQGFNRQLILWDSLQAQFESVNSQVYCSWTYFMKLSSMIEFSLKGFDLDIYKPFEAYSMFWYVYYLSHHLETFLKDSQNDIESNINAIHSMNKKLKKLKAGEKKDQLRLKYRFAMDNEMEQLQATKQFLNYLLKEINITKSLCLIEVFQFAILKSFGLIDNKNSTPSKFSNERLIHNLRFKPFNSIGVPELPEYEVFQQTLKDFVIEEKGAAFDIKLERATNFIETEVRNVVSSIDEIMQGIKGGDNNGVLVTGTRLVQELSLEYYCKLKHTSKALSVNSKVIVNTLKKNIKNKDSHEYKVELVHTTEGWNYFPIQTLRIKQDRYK
T1 sequence (looked up) 3: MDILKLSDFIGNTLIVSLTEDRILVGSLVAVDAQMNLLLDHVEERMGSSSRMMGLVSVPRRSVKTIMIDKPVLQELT

B1: NatC WT (Naa30ΔC17, full-length Naa35, Naa38ΔC11) (Saccharomyces cerevisiae S288C) (protein)
chain: MEIVYKPLDIRNEEQFASIKKLIDADLSEPYSIYVYRYFLNQWPELTYIAVDNKSGTPNIPIGCIVCKMDPHRNVRLRGYIGMLAVESTYRGHGIAKKLVEIAIDKMQREHCDEIMLETEVENSAALNLYEGMGFIRMKRMFRYYLNEGDAFKLILPLT
notes: heterotrimer co-expressed in E. coli BL21(DE3) from pRSFDuet-1; Naa30 lacks 17 and Naa38 lacks 11 C-terminal residues; His6-tag on Naa35 cut by HRV 3C; with N-alpha-acetyltransferase 35, NatC auxiliary subunit; N-alpha-acetyltransferase 38, NatC auxiliary subunit
- Km [1]: 30 ± 6 µM

B2: Gag peptide (MLRFVGSRRR) (peptide)
peptide: MLRFVGSRRR
notes: the N-terminal five residues of the major capsid protein (Gag) of the S. cerevisiae virus L-A; GS linker and a triple arginine to facilitate peptide solubility; Only the first six residues were modelled in the crystal; source: synthetic peptide (ProteoGenix)
- binding result [2]: binds
